Target: T1, FLAG-ADAR1p110-WT (UniProt P55265-5 1-931)
T1 construct: ADAR1 (ADAR, DRADA), nuclear p110 isoform, wild type; also called F-ADAR1p110-WT; F-ADAR1p110; source: HEK293T, stably expressing (p3XFLAG-CMV-10 plasmid co-transfected with pPUR), in lysate of formaldehyde-fixed cells
T1 sequence (looked up): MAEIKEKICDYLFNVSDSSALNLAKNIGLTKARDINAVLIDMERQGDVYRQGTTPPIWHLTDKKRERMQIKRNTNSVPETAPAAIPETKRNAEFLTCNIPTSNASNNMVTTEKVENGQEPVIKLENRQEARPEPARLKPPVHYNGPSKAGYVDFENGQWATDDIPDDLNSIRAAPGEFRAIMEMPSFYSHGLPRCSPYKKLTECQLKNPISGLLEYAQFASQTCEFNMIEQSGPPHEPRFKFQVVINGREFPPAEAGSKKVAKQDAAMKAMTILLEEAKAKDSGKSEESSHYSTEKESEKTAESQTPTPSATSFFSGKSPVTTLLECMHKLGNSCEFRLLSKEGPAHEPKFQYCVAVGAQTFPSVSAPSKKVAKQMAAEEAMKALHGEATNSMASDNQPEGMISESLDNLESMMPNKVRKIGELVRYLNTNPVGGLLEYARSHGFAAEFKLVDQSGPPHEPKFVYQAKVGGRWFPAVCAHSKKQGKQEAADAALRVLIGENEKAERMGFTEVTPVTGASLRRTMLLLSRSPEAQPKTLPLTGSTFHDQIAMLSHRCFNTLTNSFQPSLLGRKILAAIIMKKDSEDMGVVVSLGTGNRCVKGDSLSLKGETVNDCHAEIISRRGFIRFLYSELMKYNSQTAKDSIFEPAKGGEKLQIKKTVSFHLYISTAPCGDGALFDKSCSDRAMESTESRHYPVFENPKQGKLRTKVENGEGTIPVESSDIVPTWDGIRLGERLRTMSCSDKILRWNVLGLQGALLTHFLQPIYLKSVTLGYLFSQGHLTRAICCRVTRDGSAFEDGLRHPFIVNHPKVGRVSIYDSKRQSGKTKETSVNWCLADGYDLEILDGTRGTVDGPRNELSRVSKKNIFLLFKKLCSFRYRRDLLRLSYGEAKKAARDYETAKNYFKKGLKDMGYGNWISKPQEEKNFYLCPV
Assay: co-IP; cells expressing the FLAG-tagged bait fixed with 0.3% formaldehyde, lysed in co-IP buffer (50 mM Tris-HCl pH 7.6, 150 mM NaCl, 1 mM EDTA, 1% NP-40, 0.5% sodium deoxycholate, 0.1% SDS, RNasin Plus) and sonicated; anti-FLAG M2 magnetic beads overnight at 4 °C; immunoblot; for Fig. 10c HEK293T cells unsynchronized or synchronized at M phase (thymidine-nocodazole)
Conditions: partners not purified

fold increase of the co-IP in M-phase synchronized against unsynchronized cells: > 3 fold
B1: RNase H2A (natural protein, human (endogenous in HEK293T), UniProt O75792 1-299, looked up)
chain: MDLSELERDNTGRCRLSSPVPAVCRKEPCVLGVDEAGRGPVLGPMVYAICYCPLPRLADLEALKVADSKTLLESERERLFAKMEDTDFVGWALDVLSPNLISTSMLGRVKYNLNSLSHDTATGLIQYALDQGVNVTQVFVDTVGMPETYQARLQQSFPGIEVTVKAKADALYPVVSAASICAKVARDQAVKKWQFVEKLQDLDTDYGSGYPNDPKTKAWLKEHVEPVFGFPQFVRFSWRTAQTILEKEAEDVIWEDSASENQEGLRKITSYFLNEGSQARPRSSHRYFLERGLESATSL
notes: RNase H2 subunit A (RNaseH2A, AGS4), endogenous; also called RNase H2 subunit H2A; endogenous RNase H2A; source: endogenous, HEK293T lysate

Reference: paper PMC7955049, “ADAR1 RNA editing enzyme regulates R-loop formation and genome stability at telomeres in cancer cells” (Nature Communications, 2021)
